According to patent CN112111006A:
Changes are numbered by the printed parent chain.

Key:
[1] = molecular target: 牛结节性皮肤病病毒(LSDV) P32蛋白,原核表达,去掉C端跨膜区 (Lumpy skin disease virus (LSDV))
[2] = molecular target: 牛结节性皮肤病病毒(LSDV) P32蛋白,原核表达,去掉C端跨膜区 (Lumpy skin disease virus (LSDV)); assay: ELISA of the ascites-purified monoclonal antibody on P32

B1: P32蛋白单克隆抗体,细胞株编号701 (antibody, V domains shown)
VH: QSAPGLVQASQCLSITCTVSGFSLTTYAVHWVRQPPGQGLEWQGVIWSGGRTDYNAAFMCRLSISKDNSNSQDFFKMNSLQADDTAIYYCARNYYGGSLDYWGQGTTLTVSS
VL: DIVLTQTPASLAVSLGQRATISSRASNSVSTSRYSYMHWNQQKPGQPPRLLIYLVSNLESGVPARFSGSGSGTDFTLNIHPVEEEDAATYYCQHIRELTFGGGTKLEIK
检测限 [1]: 10 ng/mL | ELISA效价 (titer (1:dilution)) [2]: > 128000

B2: P32蛋白单克隆抗体,细胞株编号901 (antibody, V domains shown)
VH: QVQLNQSGPGLVQPSQSLSITCTLSGFSLTTYAVHWVRQSPGKGLEWLGVIWIGGRTDYNAAFISRLSISKDNSKSQVFFEMNSLQPNDTAIYYCARNYYGGSFDYWGQGTTLTVS
VL: B1 VL with T7S, S23Y, A25D, N27K, R33G
检测限 [1]: 10 ng/mL | ELISA效价 (titer (1:dilution)) [2]: > 128000
